These results are taken from US20250320258.

The data set deals with NSP1 (SARS-CoV-2).

Regarding 18S rRNA, the binding signal (fold enrichment) was above 5.
